The values that follow are results of earlier work, collected in publication PMC8797470, “Disruption of the pentraxin 3/CD44 interaction as an efficient therapy for triple‐negative breast cancers” (Clinical and Translational Medicine, 2022).

This data set addresses PTX3 (Homo sapiens) (UniProt P26022).

Chain of PTX3 (Homo sapiens) (P26022 18-381): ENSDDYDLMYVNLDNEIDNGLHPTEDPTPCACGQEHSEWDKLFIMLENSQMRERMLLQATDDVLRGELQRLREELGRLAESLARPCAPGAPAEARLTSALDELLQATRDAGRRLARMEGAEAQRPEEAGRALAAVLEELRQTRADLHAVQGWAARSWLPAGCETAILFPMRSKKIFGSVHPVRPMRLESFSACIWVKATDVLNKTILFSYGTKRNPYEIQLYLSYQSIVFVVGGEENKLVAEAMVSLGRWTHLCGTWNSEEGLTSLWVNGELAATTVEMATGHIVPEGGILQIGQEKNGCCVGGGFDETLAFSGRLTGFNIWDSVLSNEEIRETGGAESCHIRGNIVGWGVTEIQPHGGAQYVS
Chain of TSG-6 link module (P98066 36-129): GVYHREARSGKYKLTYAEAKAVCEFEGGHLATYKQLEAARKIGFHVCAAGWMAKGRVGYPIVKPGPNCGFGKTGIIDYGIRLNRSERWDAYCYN

Take TSG-6 link module (from UniProt P98066): the Kd is 481 nM.
